From patent US9073997B2, “Growth factor antagonists for organ transplant alloimmunity and arteriosclerosis” (VEGENICS PTY LIMITED, priority 2007, dated 2015)

Columns and labels:
VEGF-A165 = biological target: T1, VEGF-A165 (Homo sapiens, UniProt P15692); test: Ligand binding analysis of chimeric VEGF receptor/hIgG1Fc fusions, VEGF-A165; conditions: for binding to VEGF-A: 35S-labeled VEGF-A165 precipitated with conditioned medium of 293T cells, SDS-PAGE
T1 construct: made in house; host or cells: 293T cells, transient transfection, 35S-labelled conditioned medium
T1 sequence (P15692 27-191 isoform P15692-4): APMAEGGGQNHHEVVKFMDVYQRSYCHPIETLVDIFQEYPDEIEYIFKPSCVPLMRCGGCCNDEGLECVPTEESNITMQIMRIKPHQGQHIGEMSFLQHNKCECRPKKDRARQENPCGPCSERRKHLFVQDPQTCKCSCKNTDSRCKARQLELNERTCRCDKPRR
Experimental: (§1) For expression analysis, the two new chimeric VEGF receptors and control constructs expressing R-1D1-3/hIgG1Fc, R-2D1-3/hIgG1Fc, R-3D1-3/hIgG1Fc, mature VEGF-C and VEGF-A165 were transiently transfected into 293T cells using JetPEI (QBioGene/MP Biomedicals, Irvine, Calif.). Metabolic labeling with ^35S-methionine and ^35S-cysteine was carried out at 48 hours post-transfection and labeling maintained for 24 hours. The serum-free conditioned medium was then immunoprecipitated using Protein A sepharose and either: a) specific antiserum against human mature VEGF-C; b) goat polyclonal antibody against human VEGF-A (R&D systems, Minneapolis, Minn.); or, c) serum-free medium of 293T cells taken 48 to 72 hours post-transient transfection with VEGF receptor/hIgG1Fc proteins (control proteins, R-1D1-3, R-2D1-3, R-3D1-3; chimeric proteins, R-3D1-R2D2+3 and R-3D1-R2D2-R1D3).
(§2) The immunoprecipitated fractions were analyzed on 17% SDS-PAGE and the dried gels were exposed for 12 hours on phosphoimager plates or 36 hours on X-ray films.
(§3) Ligand binding analysis was performed as described for the VEGF-C/VEGF-A hybrid growth factors in Example 1. Briefly, the unlabeled conditioned medium of transiently transfected 293T cells expressing the chimeric VEGFR/IgG1Fc fusion proteins was used to precipitate the ^35S metabolically labeled mature VEGF-C, full-length VEGF-C, and VEGF-A165.

[1] = system: mature VEGF-C, full-length VEGF-C; test: Ligand binding analysis of chimeric VEGF receptor/hIgG1Fc fusions, VEGF-C; set-up: species or system human; conditions: 35S-labeled mature and full-length VEGF-C precipitated with conditioned medium of 293T cells, SDS-PAGE
Chain of mature VEGF-C, full-length VEGF-C (P49767 112-227 limits assumed): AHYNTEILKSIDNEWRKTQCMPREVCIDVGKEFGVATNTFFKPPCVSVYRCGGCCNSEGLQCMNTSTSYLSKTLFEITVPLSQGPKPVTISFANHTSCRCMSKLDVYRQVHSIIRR
Experimental: as §1, §2, §3

VEGF-A 109 = biological target: T2, VEGF-A 109 (Homo sapiens, UniProt P15692); test: Receptor fragment/Fc fusion ligand precipitation binding assay, VEGF-A 109; conditions: VEGFR-2 Fc fusion constructs; tritiated VEGF-A 109 precipitated, analysis of PAGE gels
T2 construct: fragments with 109 residues each (called VEGF-A 109 and VEGF-C 109); His6 (C); made in house; host or cells: 293T cells (labelled supernatant)
T2 sequence (P15692 with tags, fused parts or gaps): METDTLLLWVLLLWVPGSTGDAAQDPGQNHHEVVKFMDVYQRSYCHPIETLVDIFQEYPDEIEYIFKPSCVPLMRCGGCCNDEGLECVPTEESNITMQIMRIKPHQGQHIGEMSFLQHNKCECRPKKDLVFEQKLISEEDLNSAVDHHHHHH
From the text: (§4) The binding assays utilized minimal VEGF-A (SEQ ID NOS: 106 and 107) and VEGF-C (SEQ ID NOS: 108 and 109) fragments with 109 residues each (called VEGF-A 109 and VEGF-C 109). These constructs are not naturally occurring, but are effective for binding assays. Other growth factor constructs, either natural or artificial, may also be used for performing these assays.
(§5) Either Tritiated VEGF-A 109 or VEGF-C 109 was used in a given binding experiment. Ligand in solution was precipitated by mixing […] of ligand solution with 100 μl binding mix at 4° C. overnight, with agitation. The ligand solution may be the supernatant of metabolically labeled 293T cells. The binding mixes used for the receptor binding analysis were as follows: for VEGFR-1 binding assays, the binding mix was phosphate buffered saline (PBS) containing 1.5% BSA, 0.06% Tween 20, 3 μg/ml heparin and 400 ng/ml VEGFR-1-Fc fusion protein (100 μl of this binding mix was added to 200 μl of ligand solution). For VEGFR-2 binding assays, the binding mix was 82% conditioned cell supernatant from 293T cells transiently expressing VEGFR-2-Fc fusion protein in mixture with 18% of a PBS solution that contained 5% BSA, 0.2% Tween 20, and 10 μg/ml heparin (250 μl of binding mix was added to 200 μl of ligand solution). For VEGFR-3 binding assays, the binding mix was 82% conditioned cell supernatant from 293T cells transiently expressing VEGFR-3-Fc fusion protein, 18% of PBS containing 5% BSA, 0.2% Tween 20, and 10 μg/ml heparin (250 μl of binding mix was added to 200 μl of ligand solution). To collect precipitated ligand, 50 μl of a 30% protein A sepharose (PAS, Pharmacia) slurry in PBS was added and incubated under agitation for at least 1.5 hr at 4° C. Standard buffer was added to each immunoprecipitation sample and boiled for 5 minutes at 95° C. during which the immunopreciptated proteins become dissociated from the protein A sepharose. After centrifugation, 10 μl of each sample was analyzed on 15% SDS-PAGE under reducing conditions. The gels were dried and exposed for either 12 hours on phosphorimager plates or 4 weeks on X-ray film.
(§6) Tables 3 and 4 identify constructs by name, a DNA and deduced amino acid sequence from the sequence listing, the portion of VEGFR-2 (SEQ ID NO: 4) or VEGFR-3 (SEQ ID NO: 6) amino acid sequence that was included in the constructs, whether the constructs expressed, and, if tested, whether constructs bound ligand. The table data is compiled from analysis of PAGE gels. The asterisk adjacent to the “B*” indicates a “spill-over” from the adjacent lane, as the origin of the bands seen in the “B” lane. A failure to express under the particular experimental conditions used in this instance should not be interpreted as a failure to bind. The experiments can be repeated using different receptor fragments, binding constructs, ligands, or combinations thereof.

VEGF-C 109 = biological target: T3, VEGF-C 109 (Homo sapiens, UniProt P49767); test: Receptor fragment/Fc fusion ligand precipitation binding assay, VEGF-C 109; conditions: tritiated VEGF-C 109 precipitated, analysis of PAGE gels
T3 construct: fragments with 109 residues each (called VEGF-A 109 and VEGF-C 109); His6 (C); made in house; host or cells: 293T cells (labelled supernatant)
T3 sequence (P49767 with tags, fused parts or gaps): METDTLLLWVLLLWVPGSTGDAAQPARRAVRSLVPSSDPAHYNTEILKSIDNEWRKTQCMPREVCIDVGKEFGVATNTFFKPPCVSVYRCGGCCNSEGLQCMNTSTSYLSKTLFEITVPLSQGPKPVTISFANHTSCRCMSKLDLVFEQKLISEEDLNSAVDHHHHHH
From the text: as §4, §5, §6

Binds VEGF-A (VEGF-A 109)	Binds VEGF-C (VEGF-C 109; VEGFR-2 Fc fusion constructs)	Binds VEGF-C (VEGF-C 109; VEGFR-3 Fc fusion constructs)	Substance	other results
Yes	Yes		R-2 A: Fc fusion of VEGFR-2 (SEQ ID NO: 4) residues 24-326 with CD33 signal peptide; SEQ ID NOS: 7 and 8	
No	No		R-2 F: Fc fusion of VEGFR-2 residues 24-122 with CD33 signal peptide; SEQ ID NOS: 17 and 18	
		Yes	R-3 D: Fc fusion of VEGFR-3 residues 1-226; SEQ ID NOS: 37 and 38	
		Yes	R-3 G: Fc fusion of VEGFR-3 residues 1-329 (D1-3); SEQ ID NOS: 43 and 44	
		Yes	R-3 C: Fc fusion of VEGFR-3 residues 1-229; SEQ ID NOS: 35 and 36	
Yes	Yes		R-2 G: Fc fusion of VEGFR-2 residues 118-326 with CD33 signal peptide; SEQ ID NOS: 19 and 20	
No	Weak		R-2 I: Fc fusion of VEGFR-2 residues 118-226 with CD33 signal peptide; SEQ ID NOS: 23 and 24	
No	No		R-2 D: Fc fusion of VEGFR-2 residues 24-232 with CD33 signal peptide; SEQ ID NOS: 13 and 14	
No	No		R-2 L: Fc fusion of VEGFR-2 residues 220-326 with CD33 signal peptide; SEQ ID NOS: 29 and 30	
No	No		R-2 C: Fc fusion of VEGFR-2 residues 24-226 with CD33 signal peptide; SEQ ID NOS: 11 and 12	
		Yes	R-3 B: Fc fusion of VEGFR-3 residues 138-226 with CD33 signal peptide; SEQ ID NOS: 33 and 34	
No	No		R-2 B: Fc fusion of VEGFR-2 residues 24-220 with CD33 signal peptide; SEQ ID NOS: 9 and 10	

More lines, now with the values behind:

Substance	Binds VEGF-A (VEGF-A 109)	Binds VEGF-C (VEGF-C 109; VEGFR-2 Fc fusion constructs)	Binds VEGF-C (VEGF-C 109; VEGFR-3 Fc fusion constructs)	other results
R-3D1-R2D2-R1D3/Ig: chimeric hIgG1Fc fusion: first Ig-like domain of VEGFR-3, second of VEGFR-2, third of VEGFR-1; SEQ ID NO: 128				binding to VEGF-A (VEGF-A165): strongly bound; binding to VEGF-C [1]: strongly bound
R-3D1-R2D2+3/Ig: chimeric hIgG1Fc fusion: first Ig-like domain of VEGFR-3 and second and third Ig-like domains of VEGFR-2; SEQ ID NO: 125				binding to VEGF-A (VEGF-A165): not VEGF-A; binding to VEGF-A, second experiment (VEGF-A165; second experiment, 35S-labeled VEGF-A165, SDS-PAGE): only weak binding; binding to VEGF-C [1]: exhibited binding
R-2 K: Fc fusion of VEGFR-2 residues 118-241 with CD33 signal peptide; SEQ ID NOS: 27 and 28	No	No		
R-3 K: Fc fusion of VEGFR-3 residues 1-39, 132-229; SEQ ID NOS: 51 and 52			No	
R-3 I: Fc fusion of VEGFR-3 residues 1-39, 132-329; SEQ ID NOS: 47 and 48			No	
R-3 H: Fc fusion of VEGFR-3 residues 1-134; SEQ ID NOS: 45 and 46			No	
R-3 J: Fc fusion of VEGFR-3 residues 1-39, 132-247; SEQ ID NOS: 49 and 50			No	
R-2 H: Fc fusion of VEGFR-2 residues 118-220 with CD33 signal peptide; SEQ ID NOS: 21 and 22	No	Yes		Binds VEGF-C (VEGF-C 109; VEGFR-2 Fc fusion constructs, listed as R-2H): sufficient for VEGF-C binding
R-2 J: Fc fusion of VEGFR-2 residues 118-232 with CD33 signal peptide; SEQ ID NOS: 25 and 26	No	Very		
R-2 E: Fc fusion of VEGFR-2 residues 24-241 with CD33 signal peptide; SEQ ID NOS: 15 and 16	No	No		
